The experiment has as its target T1, biotinylated human DLL3 protein expressed as a human IgG1 fusion protein (human, UniProt Q9NYJ7 27-492, limits assumed, biotinylated).
T1 sequence: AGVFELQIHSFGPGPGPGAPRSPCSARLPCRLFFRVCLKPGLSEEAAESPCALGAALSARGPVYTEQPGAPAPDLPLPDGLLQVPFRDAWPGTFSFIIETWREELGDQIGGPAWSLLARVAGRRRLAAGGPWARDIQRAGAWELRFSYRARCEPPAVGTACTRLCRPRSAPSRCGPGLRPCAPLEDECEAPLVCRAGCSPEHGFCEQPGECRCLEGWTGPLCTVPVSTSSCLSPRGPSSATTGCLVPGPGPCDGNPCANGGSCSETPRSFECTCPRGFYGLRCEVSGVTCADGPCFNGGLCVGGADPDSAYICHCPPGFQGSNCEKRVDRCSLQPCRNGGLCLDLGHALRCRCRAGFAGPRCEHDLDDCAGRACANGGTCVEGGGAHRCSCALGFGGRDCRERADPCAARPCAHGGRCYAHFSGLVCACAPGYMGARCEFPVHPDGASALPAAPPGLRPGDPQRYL
As to the kind of experiment: Octet BLI, single 50 nM. The gist of the method: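 Affinities reflect binding of the trispecific constructs, supplied as conditioned medium of known protein concentration rather than purified material, to immobilised human DLL3 fusion protein.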

Where a chain is given by its changes, count along the chain named.

B1: 3F03 anti-DLL3 trispecific protein (other)
chain: EVQLVESGGGLVQPGGSLTLSCAASGSSVSFLSMAWYRQAPGKKRELVAGISADGSTDYIDSVKGRFTISRDNAKNSVYLQMNSLRAEDTAVYYCYAYRWRTRYTYWGQGTLVTVSS
notes: not shown: linker 1808, anti-albumin sdAb, linker 1808, anti-CD3 fragment, His6 1819
As a reminder, the Kd is a measure of binding affinity in units of concentration. Molecule B1 had a Kd of 13 nM.

B2: 3B011 anti-DLL3 trispecific protein (other)
chain: B1 chain with T57A, R101V
notes: as for B1
In the case of B2, the Kd is 9 nM.

B3: 3A06 anti-DLL3 trispecific protein (other)
chain: B1 chain with S21R, S28K, I60V, R101T, T102R
notes: as for B1
Take B3: the Kd was determined as 16 nM.

B4: 3A05 anti-DLL3 trispecific protein (other)
chain: B1 chain with A53E, D54A
notes: as for B1
Molecule B4 returned a Kd of 15 nM. The Kd values of the last two molecules are within 1.5-fold of each other.

B5: 3B09 anti-DLL3 trispecific protein (other)
chain: B1 chain with S28H, D54N, R101T, T105A
notes: as for B1
B5 showed a Kd of 20 nM.

B6: 3B02 anti-DLL3 trispecific protein (other)
chain: B1 chain with S30Q, D61N
notes: as for B1
Molecule B6 showed a Kd of 12 nM.

B7: 3A01 anti-DLL3 trispecific protein (other)
chain: B1 chain with S30K, R101T, T102R
notes: as for B1
B7 came in with a Kd of 16 nM.

B8: 3B04 anti-DLL3 trispecific protein (other)
chain: B1 chain with S28N, D54R, R99H, R101T
notes: as for B1
B8: the Kd is 24 nM.

B9: 3B05 anti-DLL3 trispecific protein (other)
chain: B1 chain with A23V, S30K, D58T, R101T, Y104R
notes: as for B1
For the molecule B9, the Kd was 7.2 nM.

B10: 3B07 anti-DLL3 trispecific protein (other)
chain: B1 chain with S28R, D58T, R101T
notes: as for B1
The molecule B10 came in with a dissociation constant Kd of 7.3 nM. The Kd values of the last two molecules are within 1.5-fold of each other.

B11: 3B01 anti-DLL3 trispecific protein (other)
chain: B1 chain with A53G, R101T
notes: as for B1
B11 had a Kd of 10 nM.

B12: 3B010 anti-DLL3 trispecific protein (other)
chain: B1 chain with A53R, R101V
notes: as for B1
Molecule B12 returned a Kd of 12 nM.

B13: 3B06 anti-DLL3 trispecific protein (other)
chain: B1 chain with S27K, A53K, R101T
notes: as for B1
B13 yielded a Kd of 15 nM. This Kd and that of the molecule before are within 1.5-fold of each other.

B14: 3A09 anti-DLL3 trispecific protein (other)
chain: B1 chain with T57V, R101T, T105I
notes: as for B1
Consider B14, for which the affinity, expressed as Kd, was 6.3 nM.

B15: 3A03 anti-DLL3 trispecific protein (other)
chain: B1 chain with S28R, A53R, R101T, Y104R
notes: as for B1
Take B15: the Kd came to 12 nM.

B16: 3A08 anti-DLL3 trispecific protein (other)
chain: B1 chain with S30G, D61R
notes: as for B1
B16 gave an equilibrium dissociation constant (Kd) of 12 nM.

B17: 3A04 anti-DLL3 trispecific protein (other)
chain: B1 chain with S28Q, A53R, R101T, T105I
notes: as for B1
Consider B17, for which the affinity, expressed as Kd, was 9.2 nM.

B18: 3A010 anti-DLL3 trispecific protein (other)
chain: B1 chain with S28R, D58L, R101T, Y104R
notes: as for B1
In turn, B18 registered a Kd of 12 nM.

B19: 2C010 anti-DLL3 trispecific protein (other)
chain: EVQLVESGGGLVQPGGSLTLSCVASGSTSKINAMGWYRRAPGKQRELVAGISSDRSKVYADSVKGRFTISRDNAKNSVYLQMNSLRAEDTAVYYCYYFRTVAGSSMRYWGQGTLVTVSS
notes: as for B1
With B19, the Kd was 7.6 nM.

B20: 2G011 anti-DLL3 trispecific protein (other)
chain: B19 chain with K30S, V48P, S53R, R55G, T100Y, A102S
notes: as for B1
B20 displayed a Kd of 13 nM.

B21: 2F07 anti-DLL3 trispecific protein (other)
chain: B19 chain with K30S, M34V, R55G, K57S, A102S, G103T
notes: as for B1
As to B21, the Kd amounted to 8 nM.

B22: 2H04 anti-DLL3 trispecific protein (other)
chain: B19 chain with K30S, R55T, A102S, S105Y
notes: as for B1
B22: the Kd was found to be 6.3 nM.

B23: 2H010 anti-DLL3 trispecific protein (other)
chain: B19 chain with K30S, V48A, R55G, V58L, A102S
notes: as for B1
B23 had a Kd of 6.4 nM.

B24: 2D09 anti-DLL3 trispecific protein (other)
chain: B19 chain with S27T, K30S, V48A, R55G, A60N, A102R
notes: as for B1
Turning to B24, the dissociation constant (Kd) amounted to 8.2 nM.

B25: 2D04 anti-DLL3 trispecific protein (other)
chain: B19 chain with K30S, M34V, R55G, A60R, A102Q
notes: as for B1
For B25, the Kd was determined as 6.2 nM.

B26: 2D06 anti-DLL3 trispecific protein (other)
chain: B19 chain with K30S, R55G, A60S, A102S, M106S
notes: as for B1
B26 displayed a Kd of 6.6 nM.

B27: 2G04 anti-DLL3 trispecific protein (other)
chain: B19 chain with K30S, R55G, K57L, T100I, V101L, A102S
notes: as for B1
Molecule B27 came in with a Kd of 11 nM.

B28: 2F02 anti-DLL3 trispecific protein (other)
chain: B19 chain with K30S, M34V, R55G, D61G, A102S, S105Y
notes: as for B1
Regarding B28, the equilibrium dissociation constant (Kd) was found to be 9.6 nM.

B29: 2E09 anti-DLL3 trispecific protein (other)
chain: B19 chain with T28V, K30S, R55G, D61S, V63A, V101L, A102S
notes: as for B1
With B29, the Kd was determined as 8.5 nM. This Kd and that of the molecule before are within 1.5-fold of each other.

B30: 2D03 anti-DLL3 trispecific protein (other)
chain: B19 chain with S27K, K30S, R55G, A102S, S104V
notes: as for B1
On to B30, for which binding was put at a Kd of 6.8 nM.

B31: 2E06 anti-DLL3 trispecific protein (other)
chain: B19 chain with K30S, R55G, D61S, A102R
notes: as for B1
Turning to B31, the Kd was 11 nM.

B32: 2G08 anti-DLL3 trispecific protein (other)
chain: B19 chain with K30Y, R55G, A102S, S104Q, R107G
notes: as for B1
On to B32, for which binding was put at a Kd of 4.1 nM.

B33: 2F08 anti-DLL3 trispecific protein (other)
chain: B19 chain with T28K, K30S, V48P, D54N, R55G, S56T, V63A, G65V, A102L, S104T
notes: as for B1
For the molecule B33, the Kd turned out to be 20 nM. Against the preceding molecule, the Kd is about 4.9-fold higher.

B34: 2F09 anti-DLL3 trispecific protein (other)
chain: B19 chain with K30S, G35A, R55G, V58L, A102S
notes: as for B1
B34 gave a Kd of 6.5 nM. Compared with the last molecule, the Kd is about 3.1-fold lower.

B35: 2H03 anti-DLL3 trispecific protein (other)
chain: B19 chain with K30S, G35A, R55G, T100Q, A102S
notes: as for B1
With B35, the affinity, expressed as Kd, was 5.3 nM. This Kd and that of the molecule before are within 1.5-fold of each other.

B36: 2D07 anti-DLL3 trispecific protein (other)
chain: B19 chain with K30S, M34V, R55G, S56T, A60R, A102Q
notes: as for B1
B36 displayed an equilibrium dissociation constant (Kd) of 6 nM.

B37: 2D02 anti-DLL3 trispecific protein (other)
chain: B19 chain with K30S, M34L, R55G, K57L, T100I, A102S
notes: as for B1
In turn, B37 came in with a Kd of 14 nM.

B38: 2F06 anti-DLL3 trispecific protein (other)
chain: B19 chain with K30S, M34Y, R55G, K57A, V101H, A102S
notes: as for B1
The molecule B38 came in with a Kd of 10 nM.

B39: 2D05 anti-DLL3 trispecific protein (other)
chain: B19 chain with K30R, R55G, V101A, A102S
notes: as for B1
B39 registered a Kd of 8.3 nM.

B40: 2E08 anti-DLL3 trispecific protein (other)
chain: B19 chain with T28R, K30S, S53A, R55G, V101Q, A102S
notes: as for B1
B40 had a Kd of 17 nM.

B41: 2G09 anti-DLL3 trispecific protein (other)
chain: B19 chain with K30S, I51V, R55G, A102S, M106A
notes: as for B1
Molecule B41 returned a Kd of 8 nM.

B42: 2H07 anti-DLL3 trispecific protein (other)
chain: B19 chain with K30S, M34V, R55G, K57T, A102S, S104H
notes: as for B1
The molecule B42 showed a Kd of 6.1 nM.

B43: 2F01 anti-DLL3 trispecific protein (other)
chain: B19 chain with K30S, R55G, A60S, T100L, A102S
notes: as for B1
Turning to B43, binding was characterised by a dissociation constant (Kd) of 9.2 nM.

B44: 2H011 anti-DLL3 trispecific protein (other)
chain: B19 chain with K30R, R55G, T100R, A102S
notes: as for B1
In the case of B44, the Kd is 5 nM.

B45: 2D010 anti-DLL3 trispecific protein (other)
chain: B19 chain with K30S, R55G, V101K, A102S
notes: as for B1
In turn, B45 came in with a Kd of 7.3 nM.

B46: 2D011 anti-DLL3 trispecific protein (other)
chain: B19 chain with S27T, K30S, R55G, A102W
notes: as for B1
In the case of B46, the Kd was 5.4 nM.

B47: 2H08 anti-DLL3 trispecific protein (other)
chain: B19 chain with K30S, V48A, S53K, R55G, V63A, A102S, M106S
notes: as for B1
Molecule B47 had a dissociation constant (Kd) of 18 nM.

B48: 2G03 anti-DLL3 trispecific protein (other)
chain: B19 chain with K30S, R55G, K57L, A102S, Y108A
notes: as for B1
The molecule B48 gave a Kd of 5.6 nM.

B49: 2H06 anti-DLL3 trispecific protein (other)
chain: B19 chain with K30T, R55G, V101A, A102S
notes: as for B1
Regarding B49, the Kd was determined as 7.9 nM.

B50: 2F03 anti-DLL3 trispecific protein (other)
chain: B19 chain with K30S, G35A, V48A, R55N, A102G
notes: as for B1
As for B50, the affinity, expressed as Kd, was 5.9 nM.

B51: 2G07 anti-DLL3 trispecific protein (other)
chain: B19 chain with K30S, G35A, R55G, A102Q
notes: as for B1
B51: the affinity, expressed as Kd, was 6.5 nM.

B52: 2D012 anti-DLL3 trispecific protein (other)
chain: B19 chain with S27K, K30S, R55G, A60T, V101R, A102S
notes: as for B1
For B52, the Kd turned out to be 4.9 nM. The Kd values of the last two molecules are within 1.5-fold of each other.

The values above are taken from patent US20240141072A1 (published 2024).
